Literature values as cited in article PMC12026706.

Assays:
Experiment in all cases: BIAcore SPR
TREM-1 (Homo sapiens) = TREM-1 (Homo sapiens) (UniProt Q9NP99)
MD2 (Homo sapiens) = MD2 (Homo sapiens) (UniProt Q9Y6Y9)
[1] = molecular target: TLR4/MD2 complex (Homo sapiens) (UniProt O00206)
IL-6R (Homo sapiens) = IL-6R (Homo sapiens) (UniProt P08887)
TLR4 (Homo sapiens) = TLR4 (Homo sapiens) (UniProt O00206)
TLR4 (Homo sapiens), sequence (O00206 24-839): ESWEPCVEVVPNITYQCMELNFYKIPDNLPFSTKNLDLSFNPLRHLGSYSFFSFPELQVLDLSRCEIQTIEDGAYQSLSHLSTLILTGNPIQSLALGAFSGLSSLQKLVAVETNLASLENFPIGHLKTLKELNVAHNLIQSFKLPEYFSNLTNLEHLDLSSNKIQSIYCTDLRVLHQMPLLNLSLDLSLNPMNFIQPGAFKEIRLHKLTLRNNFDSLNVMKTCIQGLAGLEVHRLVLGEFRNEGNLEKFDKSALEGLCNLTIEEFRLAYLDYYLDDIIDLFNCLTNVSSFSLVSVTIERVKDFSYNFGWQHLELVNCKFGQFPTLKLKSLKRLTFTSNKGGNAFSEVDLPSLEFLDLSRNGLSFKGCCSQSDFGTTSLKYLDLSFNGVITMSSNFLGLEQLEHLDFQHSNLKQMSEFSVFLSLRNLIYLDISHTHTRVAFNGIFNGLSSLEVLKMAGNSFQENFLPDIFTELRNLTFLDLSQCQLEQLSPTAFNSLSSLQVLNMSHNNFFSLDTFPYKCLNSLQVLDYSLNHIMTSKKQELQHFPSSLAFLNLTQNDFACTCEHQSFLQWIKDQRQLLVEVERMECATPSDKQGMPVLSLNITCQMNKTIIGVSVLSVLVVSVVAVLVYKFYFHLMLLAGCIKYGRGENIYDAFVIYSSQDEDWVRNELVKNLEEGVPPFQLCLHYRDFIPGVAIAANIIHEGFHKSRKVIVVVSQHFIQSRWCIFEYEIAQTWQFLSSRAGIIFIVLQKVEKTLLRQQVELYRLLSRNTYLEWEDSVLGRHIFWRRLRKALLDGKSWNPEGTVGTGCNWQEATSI

eCIRP, sequence (Q14011 whole entry): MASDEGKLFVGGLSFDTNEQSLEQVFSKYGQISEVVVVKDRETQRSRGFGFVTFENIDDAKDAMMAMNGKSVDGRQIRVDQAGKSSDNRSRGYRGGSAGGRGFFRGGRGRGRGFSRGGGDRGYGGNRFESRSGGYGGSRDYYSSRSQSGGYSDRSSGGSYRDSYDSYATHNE
TREM-1 (Homo sapiens), sequence (Q9NP99 21-234): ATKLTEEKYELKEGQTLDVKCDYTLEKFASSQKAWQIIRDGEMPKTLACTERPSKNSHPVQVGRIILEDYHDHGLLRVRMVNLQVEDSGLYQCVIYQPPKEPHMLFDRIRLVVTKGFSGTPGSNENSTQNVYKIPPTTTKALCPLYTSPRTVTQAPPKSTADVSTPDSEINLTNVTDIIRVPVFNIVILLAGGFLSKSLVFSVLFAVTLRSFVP
MD2 (Homo sapiens), sequence (Q9Y6Y9 19-160): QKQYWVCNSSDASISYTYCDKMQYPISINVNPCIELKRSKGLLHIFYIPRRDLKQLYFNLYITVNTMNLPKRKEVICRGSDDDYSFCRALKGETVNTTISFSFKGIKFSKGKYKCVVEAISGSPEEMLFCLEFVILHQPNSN
TLR4/MD2 complex (Homo sapiens), sequence (O00206 24-839, chain 1 of 2): as the sequence (O00206 24-839) above
TLR4/MD2 complex (Homo sapiens), sequence (Q9Y6Y9 19-160, chain 2 of 2, further chain): as the sequence (Q9Y6Y9 19-160) above
IL-6R (Homo sapiens), sequence (P08887 20-355): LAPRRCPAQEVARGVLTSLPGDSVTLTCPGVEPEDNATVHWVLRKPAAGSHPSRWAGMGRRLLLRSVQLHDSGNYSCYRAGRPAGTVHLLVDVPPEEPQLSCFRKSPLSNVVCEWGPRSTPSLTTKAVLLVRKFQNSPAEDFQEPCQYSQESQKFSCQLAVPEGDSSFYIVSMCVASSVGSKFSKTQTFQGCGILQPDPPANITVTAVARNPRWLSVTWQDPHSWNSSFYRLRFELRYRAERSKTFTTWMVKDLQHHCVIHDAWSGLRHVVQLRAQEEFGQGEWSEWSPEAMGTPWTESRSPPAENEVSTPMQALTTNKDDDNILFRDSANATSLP

Kd (TREM-1 (Homo sapiens)): 117 nM
Kd (MD2 (Homo sapiens)): 302 nM
Kd [1]: 239 nM
Kd (IL-6R (Homo sapiens)): 98 nM
Kd (TLR4 (Homo sapiens)): 617 nM
Substance: eCIRP (from UniProt Q14011)
